T1: human transglutaminase type 2 (TG2) (human, UniProt P21980 2-687)
T1 sequence: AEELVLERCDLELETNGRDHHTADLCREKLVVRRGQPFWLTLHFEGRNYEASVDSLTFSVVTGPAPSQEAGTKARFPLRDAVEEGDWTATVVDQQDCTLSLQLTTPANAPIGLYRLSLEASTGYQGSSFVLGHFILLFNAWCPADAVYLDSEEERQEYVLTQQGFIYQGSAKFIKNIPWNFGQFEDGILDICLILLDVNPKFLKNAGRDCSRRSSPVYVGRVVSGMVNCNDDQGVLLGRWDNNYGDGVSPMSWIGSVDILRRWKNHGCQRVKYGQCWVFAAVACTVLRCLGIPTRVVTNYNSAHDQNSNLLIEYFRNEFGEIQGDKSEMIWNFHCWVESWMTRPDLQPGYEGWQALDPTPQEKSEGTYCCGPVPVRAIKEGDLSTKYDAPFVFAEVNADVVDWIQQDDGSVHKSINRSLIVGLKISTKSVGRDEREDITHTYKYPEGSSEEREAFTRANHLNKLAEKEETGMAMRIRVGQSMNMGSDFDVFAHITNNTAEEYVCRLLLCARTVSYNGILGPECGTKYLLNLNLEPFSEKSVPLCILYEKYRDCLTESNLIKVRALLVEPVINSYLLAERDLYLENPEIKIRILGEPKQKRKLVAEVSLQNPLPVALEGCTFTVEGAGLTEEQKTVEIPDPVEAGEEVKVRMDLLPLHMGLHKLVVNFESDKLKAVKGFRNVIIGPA


Key:
[1] = target: rabbit TG2 (rabbit); assay: cell-based or functional assay
[2] = target: T1, human transglutaminase type 2 (TG2); assay: cell-based or functional assay

| Binder | IC50 against rabbit TG2 (assay not given) [1] [nM] | IC50 against human TG2 (assay not given) [2] [nM] |
| --- | --- | --- |
| Zampilimab (antibody, V domains shown) VH: EVQLLESGGGLVQPGGSLRLSCAASGFTLSTHAMSWVRQAPGKGLEWVATISSGGRSTYYPDSVKGRFTISRDNSKNTLYLQMNSLRAEDTAVYFCARLISTYWGQGTLVTVSS VL: DITMTQSPSSLSASVGDRVTITCKASQDINSYLTWFQQKPGKAPKILIYLVNRLVDGVPSRFSGSGSGQDYALTISSLQPEDFATYYCLQYDDFPYTFGQGTKVEIK | 103 | 0.25 |
| rbBB7 (antibody, V domains shown) VH: EVQLLESGGRLVTPGGSLTLTCAASGIIFSSSAMSWVRQAPGKGLEWVATISSGGRSTYYPDSVKGRFTVSRDSSKNTLYLQMNSLRAEDTAVYYCAKLISPYWGQGTLVTVSS VL: AIKMTQTPSSVSAAVGGTVTISCKASQDINSYLTWFQQKPGQPPKTLIYLTNRLMDGVPSRFSGSGSGQEFLLTISGLECDDAATYYCLQYVDFPYTFGGGTKVVVK | 8 | 0.3 |

Reference: patent US20250019463A1 (UCB, published 2025)
